The text below walks through data of patent US20240084044A1, “Heteromultivalent Nucleic Acid Scaffolds and Uses Thereof” (George Mason University, priority 2022, published 2024).

Several values for one entry are separate records, joined by “and”; a condition that tells them apart may be missing. Identical values can stand only once. Bridges are numbered along the chain shown (N, C = ends). Roman numbers before positions name the chains, in order.

The test concerns the target T1, ST2/IL-33 binary complex (Homo sapiens, UniProt O95760+Q01638).
T1 construct: included the extracellular domains, K19-F328 and S21-E359, respectively; the cleaved mature proteins, S112-T270, A117-S269, and R2-S310, respectively; purchased Sino Biologicals ST2 10105-HCCH; IL-33 10368-HNAE; host or cells: ST2: HEK293; IL-33: E. coli
T1 sequence (Q01638 19-328 isoform Q01638-2): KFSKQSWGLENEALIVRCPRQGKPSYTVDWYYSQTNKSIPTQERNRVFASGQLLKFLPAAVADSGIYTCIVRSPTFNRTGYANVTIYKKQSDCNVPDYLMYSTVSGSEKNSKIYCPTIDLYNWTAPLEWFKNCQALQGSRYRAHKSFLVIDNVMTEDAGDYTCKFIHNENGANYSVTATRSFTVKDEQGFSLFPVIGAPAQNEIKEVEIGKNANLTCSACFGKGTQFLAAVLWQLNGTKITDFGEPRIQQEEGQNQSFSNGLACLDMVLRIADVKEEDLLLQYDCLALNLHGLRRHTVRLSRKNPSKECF
T1 sequence (O95760 112-270): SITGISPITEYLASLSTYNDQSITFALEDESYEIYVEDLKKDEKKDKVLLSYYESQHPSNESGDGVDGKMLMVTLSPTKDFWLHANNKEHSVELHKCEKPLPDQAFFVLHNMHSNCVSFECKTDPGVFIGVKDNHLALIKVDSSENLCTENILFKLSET
In words: SPR dissociation constant for the ST2/IL-33 binary complex. In kind it is binding. The text has this:
Recombinant ST2 with truncated FLAG (DDDDK) tag (Cat. #10105-HCCH), His-tagged IL1RAcP (Cat. #10121-H08H), IL-33 (Cat. #10368-HNAE), IL-1β (Cat. #10139-HNAE), and FLAG-tagged SIRT5 (Cat. #19202-H22E) were purchased from Sino Biologicals (Wayne, PA). ST2 and IL1RAcP were expressed in HEK293 cells and included the extracellular domains, K19-F328 and S21-E359, respectively. IL-33, IL-1β, and SIRT5 were expressed in E. coli and included the residue sequence of the cleaved mature proteins, S112-T270, A117-S269, and R2-S310, respectively. Lyophilized ST2, and IL1RAcP were reconstituted in ultrapure (18.5 MΩ) water to a concentration of 0.5 mg/mL (5.6 μM) and stored at −80° C. until use. SIRT5 was reconstituted to 0.2 mg/mL (2.87 μM). To prevent oxidation, IL-33 was reconstituted in 10 mM β-mercaptoethanol (Sigma-Aldrich) to a concentration of 0.1 mg/mL and IL-1β was reconstituted to 0.250 mg/mL. All peptides were purchased from Peptide 2.0 (Chantilly, VA) and designed based on IL1RAcP hotspot residues known to interact with IL-33/ST2 and surrounding residues based on the canonical sequence of IL1RAcP (Uniprot #Q9NPH3). All peptides were modified with acetylated N-terms and amidated C-terms to optimize stability and cyclic peptides cyclized via thioether or disulfide bond. Candidate peptides for the final molecule were also modified with an azido-Lysine and additional N-term alanine or cysteine, to provide the azide group for copper free click chemistry and maintain cyclization. Peptides were stored at −20° C. in lyophilized aliquots of 100 μg or 200 μg and −80° C. after reconstitution in sterile DMSO to a concentration of 10 mM.
SPR experiments were carried out on an OpenSPR instrument (Nicoya). Gold nanoparticle sensor chips (Nicoya) were functionalized by incubation in a solution of ethanol and 10 mM 11-Mercaptoundecanoic acid (MUDA) at RT for a minimum of 48 h, then stored in ethanol at 4° C. until use. Chips were activated with a solution of 200 mM EDC and 50 mM NHS for 3 m at RT. […] Data was analyzed with TraceDrawer software to a 1:1 fit model.

Turning to “MSTOP: 3WJ DNA scaffold whose three DBCO staple strands carry cyclized azidolysine IL-1RAcP hotspot peptides; decoy for IL-33/ST2 (peptide 1 Ac-CKEYGIQRITC-NH2; peptide 2 Ac-AKVGSPKNAVPPC-NH2; peptide 3 Ac-CKGEVAKAAKVKC-NH2; disulfide I:1-I:11, III:1-III:13; thioether II:1-II:13; not fully specified (some residues); also: three peptides held on a 3-way junction DNA scaffold via DBCO staple strands)”, the “increase in affinity compared to the individual peptides and IL-1RAcP” value (SPR KD comparison) is ~100 fold and 100 fold. Also, the Kd (SPR, 1:1 fit, read-out: KD (affinity) to the binary ST2/IL-33 complex) is 195 nM and < 200 nM.
